US20090111753A1, “Nogo-A Polypeptide Fragments, Variant Nogo Receptor-1 Polypeptides, and Uses Thereof” (Yale University, priority 2004, published 2009)
Residue numbers refer to the chain shown, from its start. Names and notes keep the numbering of the source.

B1: AP-fused Amino-Nogo fragment B4C (a.a. 950-1018) (ligand)
chain: LLPPDVSALATQAEIESIVKPKVLVKEAEKKLPSDTEKEDRSPSAIFSAELSKTSVVDLLYWRDIKKTG
notes: also called AmNg B4C; AP-B4C; not shown: alkaline phosphatase (AP), vector pcAP6
B2: AP-Nogo-66 (ligand, UniProt Q9NQC3 1055-1120, looked up)
chain: RIYKGVIQAIQKSDEGHPFRAYLESEVAISEELVQKYSNSALGHVNCTIKELRRLFLVDDLVDSLK
notes: domain: Nogo-66; construct described elsewhere (Fournier 2001); also called AP-Ng66; Ng66; not shown: alkaline phosphatase (AP); construct described elsewhere
B3: B4: fusion protein of GST and B4 fragment (carboxyl terminal 150 aa) of Amino-Nogo (protein)
chain: SKTDSFSKLAREYTDLEVSHKSEIANAPDGAGSLPCTELPHDLSLKNIQPKVEEKISFSDDFSKNGSATSKVLLLPPDVSALATQAEIESIVKPKVLVKEAEKKLPSDTEKEDRSPSAIFSAELSKTSVVDLLYWRDIKKTG
modifications: left off: a dimerising Fc or GST
notes: fusion protein of GST and B4 fragment (carboxyl terminal 150 aa) of Amino-Nogo
B4: B fragment of Amino-Nogo: fusion protein of GST and B fragment of Amino-Nogo (protein, UniProt Q9NQC3 622-1018, looked up, fragment)
chain: SAVPSAGASVIQPSSSPLEASSVNYESIKHEPENPPPYEEAMSVSLKKVSGIKEEIKEPENINAALQETEAPYISIACDLIKETKLSAEPAPDFSDYSEMAKVEQPVPDHSELVEDSSPDSEPVDLFSDDSIPDVPQKQDETVMLVKESLTETSFESMIEYENKEKLSALPPEGGKPYLESFKLSLDNTKDTLLPDEVSTLSKKEKIPLQMEELSTAVYSNDDLFISKEAQIRETETFSDSSPIEIIDEFPTLISSKTDSFSKLAREYTDLEVSHKSEIANAPDGAGSLPCTELPHDLSLKNIQPKVEEKISFSDDFSKNGSATSKVLLLPPDVSALATQAEIESIVKPKVLVKEAEKKLPSDTEKEDRSPSAIFSAELSKTSVVDLLYWRDIKKTG
modifications: GST fusion

How the values were obtained:
[1] = molecular target: T1, human NgR1 alanine mutant 133, 136 (human, UniProt Q9BZR6 27-473); assay: AP-ligand binding, COS-7
T1 sequence: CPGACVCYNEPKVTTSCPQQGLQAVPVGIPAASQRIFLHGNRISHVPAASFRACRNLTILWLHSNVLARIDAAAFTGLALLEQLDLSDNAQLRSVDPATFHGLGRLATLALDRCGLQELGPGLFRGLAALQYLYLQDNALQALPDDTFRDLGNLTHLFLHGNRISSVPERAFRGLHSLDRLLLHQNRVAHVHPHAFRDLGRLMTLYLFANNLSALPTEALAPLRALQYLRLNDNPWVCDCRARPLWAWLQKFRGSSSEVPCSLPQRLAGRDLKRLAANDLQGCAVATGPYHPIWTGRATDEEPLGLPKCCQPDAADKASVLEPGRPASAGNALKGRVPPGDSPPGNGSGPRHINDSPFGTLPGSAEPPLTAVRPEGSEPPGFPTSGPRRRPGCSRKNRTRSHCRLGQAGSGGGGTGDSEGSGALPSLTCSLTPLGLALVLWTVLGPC

[2] = molecular target: T2, human NgR1 alanine mutant 182, 186 (human, UniProt Q9BZR6 27-473); assay: AP-ligand binding, COS-7
T2 sequence: T1 sequence with A107H, A110H, H156A, H160A

[3] = molecular target: T3, human NgR1 alanine mutant 232, 234 (human, UniProt Q9BZR6 27-473); assay: AP-ligand binding, COS-7
T3 sequence: T1 sequence with A107H, A110H, Y206A, F208A

[4] = molecular target: T4, human NgR1 alanine mutant 82, 179 (human, UniProt Q9BZR6 27-473); assay: AP-ligand binding, COS-7
T4 sequence: T1 sequence with N56A, A107H, A110H, N153A

[5] = molecular target: T5, human NgR1 alanine mutant 163 (human, UniProt Q9BZR6 27-473); assay: AP-ligand binding, COS-7
T5 sequence: T1 sequence with A107H, A110H, D137A

[6] = molecular target: T6, human NgR1 alanine mutant 158, 160 (human, UniProt Q9BZR6 27-473); assay: AP-ligand binding, COS-7
T6 sequence: T1 sequence with A107H, A110H, Y132A, Y134A

E13 chick DRG neurons = assay: cDRG neurite outgrowth assay; format: cell-based; conditions: substrate coated with GST fusion protein
Procedure: FIG. 2D. Differential effects of Amino-Nogo fragments on neurite outgrowth. Dissociated neurons from E13 chick DRGs were plated on 96 well dishes coated with lpmol protein per well and stained for neurofilament localization.
FIG. 2E. Neurite length per neuron were measured and plotted as percentage of PBS control with increasing concentration of dried protein for experiment described in […].
FIG. 6C. B24/32 peptide inhibits neurite outgrowth. Dissociated neurons from E13 chick DRG were plated onto 96 well dishes coated with 500 pmol of dried peptides as indicated and stained for neurofilament localization.
FIG. 6D. Neurite length per neuron was measured and plotted as percentage of PBS control for experiments as in (C).
(§1) It has been recognized that the Amino-Nogo-A protein inhibits non-neuronal cell spreading and axonal outgrowth when the protein is substrate bound (Chen, M. S., et al., Nature 403:434-439 (2000); Fournier, A. E., et al., Nature 409:341-346 (2001)). […] The later domain has been termed Δ20. To determine whether the NgR-interacting aa of Amino-Nogo-A described in Example 1 regulate cell spreading and axonal outgrowth, various fragments were expressed as GST fusion proteins and purified from E. coli. To generate GST fusion proteins, amino Nogo fragments were cloned in pGEX2T (Amersham Pharmacia). Native and soluble GST fusion proteins were expressed and purified as described (GrandPre, T., et al., Nature 403:439-444 (2000)). COS-7 binding assays were done as described (Fournier, A. E., et al., Nature 409:341-346 (2001)). Bound AP to COS-7 cells was measured using NIH image software. Fibroblast spreading and cDRG outgrowth assay were done as described (Fournier, A. E., et al., Nature 409:341-346 (2001)) with some modifications. Briefly, 50 μl of purified GST fusion protein or peptides diluted in PBS was pipetted into polylysine precoated 96 well plates (Becton Dickson Biocoat plates) and dried overnight at room temperature. For fibroblast spreading assay, subconfluent COS-7 cells were then plated for 1 hour in serum containing medium before fixation and staining with rho damine-phalloidin.
The same GST-Amino-Nogo proteins were tested for their ability to reduce neurite outgrowth from chick E13 DRG neurons. For cDRG outgrowth assay, dissociated E13 cDRG neurons were plated for 6 hours before fixation. […] Cell area, number of attached cells and neurite length were measured using the Imageexpress machine and software (Axon Instrument).
We reasoned that fusing the 24 aa segment of Amino-Nogo-A to NEP32 antagonist peptide might create a high affinity antagonist with a potency similar to the binding of AP-B4C-66 to NgR. […] Cell area, number of attached cells and neurite length were measured using the linageexpress machine and software (Axon Instrument).

COS-7 cells = assay: Fibroblast spreading assay on dried GST fusion protein; format: cell-based; conditions: GST fusion protein presented as dried substrate
Procedure: FIG. 2A. Effects of Amino-Nogo fragments on fibroblast spreading and neurite outgrowth. Different effects of Amino-Nogo fragments on fibroblast spreading. COS-7 cells were allowed to attach and spread on slides with spots coated with 50 ng of dried GST fusion protein as indicated and stained for F-actin. GST-A: fusion protein of GST and A fragment (FIG. 1) of Amino-Nogo. GST-A, GST-B, GST-Δ20, GST-B4 and GST-B4C: fusion protein of GST and A, B, Δ20, B4 or B4C fragment (FIG. 1) of Amino-Nogo, respectively.
FIG. 2B. COS-7 cell area for experiments as in (A) was measured and plotted.
FIG. 2C. COS-7 cells were allowed to attach and spread on 96 well dishes coated with dried GST fusion proteins as indicated. Number of attached cells were counted and plotted as a function of the amount of various proteins dried per well in a 96 well dish.
as §1, with “For fibroblast spreading assay, subconfluent COS-7 cells were then plated for 1 hour in serum containing medium before fixation and staining with rho damine-phalloidin.” left out

Row | Molecule | binding result [1] | binding result [2] | binding result [3] | binding result [4] | binding result [5] | binding result [6] | neurite outgrowth from chick E13 DRG neurons (E13 chick DRG neurons) | COS-7 cell attachment and spreading (COS-7 cells)
1 | B1 | no binding | no binding | no binding | no binding | no binding | no binding | – | –
2 | B2 | no binding | no binding | no binding | no binding | no binding | no binding | – | –
3 | B3 | – | – | – | – | – | – | not inhibitory for axonal growth | do not alter COS-7 morphology
4 | B4 | – | – | – | – | – | – | – | active
